Target: membrane-embedded MraY from Aquifex aeolicus used for structure-guided disulfide cross-bridge experiments (Aquifex aeolicus) (UniProt O66465)
Experiment: cross-linking

stoichiometry N: 2
Substance: membrane-embedded MraY from Aquifex aeolicus used for structure-guided disulfide cross-bridge experiments (from UniProt O66465 1-359) (enzyme)
